Reference: PMC9800282 (2022)

Biological target: T1, VTN (vitronectin) (Homo sapiens (Human), UniProt P04004)
T1 chain: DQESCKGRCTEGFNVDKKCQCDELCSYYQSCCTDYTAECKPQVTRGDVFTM
Assay: SPR; Mg2+/Ca2+/Mn2+ buffer, 37 °C 1 mM MgCl2, 1 mM CaCl2, 2 mM MnCl2 in SPR buffer

- Kd: 997 nM
B1: integrin αvβ3 (rhαvβ3) (protein)
chain 1: FNLDVDSPAEYSGPEGSYFGFAVDFFVPSASSRMFLLVGAPKANTTQPGIVEGGQVLKCDWSSTRRCQPIEFDATGNRDYAKDDPLEFKSHQWFGASVRSKQDKILACAPLYHWRTEMKQEREPVGTCFLQDGTKTVEYAPCRSQDIDADGQGFCQGGFSIDFTKADRVLLGGPGSFYWQGQLISDQVAEIVSKYDPNVYSIKYNNQLATRTAQAIFDDSYLGYSVAVGDFNGDGIDDFVSGVPRAARTLGMVYIYDGKNMSSLYNFTGEQMAAYFGFSVAATDINGDDYADVFIGAPLFMDRGSDGKLQEVGQVSVSLQRASGDFQTTKLNGFEVFARFGSAIAPLGDLDQDGFNDIAIAAPYGGEDKKGIVYIFNGRSTGLNAVPSQILEGQWAARSMPPSFGYSMKGATDIDKNGYPDLIVGAFGVDRAILYRARPVITVNAGLEVYPS
chain 2: GPNICTTRGVSSCQQCLAVSPMCAWCSDEALPLGSPRCDLKENLLKDNCAPESIEFPVSEARVLEDRPLSDKGSGDSSQVTQVSPQRIALRLRPDDSKNFSIQVRQVEDYPVDIYYLMDLSYSMKDDLWSIQNLGTKLATQMRKLTSNLRIGFGAFVDKPVSPYMYISPPEALENPCYDMKTTCLPMFGYKHVLTLTDQVTRFNEEVKKQSVSRNRDAPEGGFDAIMQATVCDEKIGWRNDASHLLVFTTDAKTHIALDGRLAGIVQPNDGQCHVGSDNHYSASTTMDYPSLGLMTEKLSQKNINLIFAVTENVVNLYQNYSELIPGTTVGVLSMDSSNVLQLIVDAYGKIRSKVELEVRDLPEELSLSFNATCLNNEVIPGLKSCMGLKIGDTVSFSIEAKVRGCPQEKEKSFTIKPVGFKDSLIVQVTFDCDCA
